# Data reported in US10782287B2, “Enzyme coupled assay for quantification of protein and peptide binding by SAMDI mass spectrometry” (NORTHWESTERN UNIVERSITY, priority 2015, dated 2020).
# Ends that are not written are not given here.
# Target: T1, Cbx1 fusion protein (Cbx1 chromodomain-KDAC8) (Homo sapiens, UniProt P83916)
# T1 construct: constructing E. coli-based vectors containing chromodomains and KDAC8 separated by a short linker; made in house; host or cells: E. coli
# Test: Enzyme-coupled SAMDI mass spectrometry assay: deacetylation of an immobilized KDAC8 substrate reports chromodomain binding to a co-immobilized ligand
# Assay type: biochemical
# Conditions: monolayer presenting substrate GMK^AcFGC and the ligand; when the chromodomain binds its ligand on the monolayer
# Text: In this example, two peptides—a methylated peptide that binds the chromodomain and an acetylated peptide that is a substrate for the deacetylase—are immobilized to a monolayer presenting maleimide groups against a background of tri(ethylene glycol) groups. The density of the maleimide group is controlled precisely (Houseman et al., Langmuir 19: 1522-1531 (2003)) and the relative densities of the two peptides are controlled either by immobilizing them as a mixture at defined concentrations or by immobilizing the first for a time that gives incomplete immobilization followed by addition of the second peptide. Fusion proteins are prepared by first constructing E. coli-based vectors containing chromodomains and KDAC8 separated by a short linker. The vector is designed to contain a restriction site allowing for the insertion of any chromodomain of interest containing the complementary restriction sites. In this way, the same plasmid containing KDAC8 may be used to rapidly create several chromodomain fusions. Monolayers are treated with the chromodomain-KDAC8 fusion protein for different times, the reactions are stopped by rinsing and the spots are analyzed by SAMDI mass spectrometry to identify an initial velocity for the reaction, υo, which is the measurable parameter that is used to assess the protein-ligand interaction. […]
# T1 sequence (P83916 21-79 limits assumed): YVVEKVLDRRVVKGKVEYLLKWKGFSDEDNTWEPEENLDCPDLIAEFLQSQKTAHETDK
substance,measurement,value
"QTARK^MeSTGC: methylated H3K9-based peptide ligand for the Cbx1 chromodomain, immobilized on the monolayer via cysteine (QTARK(Me)STGC; also: immobilized on the monolayer via cysteine)",rate acceleration for the deacetylation reaction,approximately 20 fold
